Consider four molecules from publication PMC5811034, “Xylem specific activation of 5’ upstream regulatory region of two NAC transcription factors (MusaVND6 and MusaVND7) in banana is regulated by SNBE-like sites”.

What all share (assay): EMSA; 10 mM Tris pH 8, 5 mM MgCl2, 10 mM KCl, 20 min (temperature not stated); 1.5% agarose gel
Holding throughout (settings): protein: recombinant, chain copies: 2

In one data set the target is T1, VND1 (MusaVND1) (Musa (banana), cultivar  for …, UniProt A0A0U3BXB0 1-329).
T1 sequence: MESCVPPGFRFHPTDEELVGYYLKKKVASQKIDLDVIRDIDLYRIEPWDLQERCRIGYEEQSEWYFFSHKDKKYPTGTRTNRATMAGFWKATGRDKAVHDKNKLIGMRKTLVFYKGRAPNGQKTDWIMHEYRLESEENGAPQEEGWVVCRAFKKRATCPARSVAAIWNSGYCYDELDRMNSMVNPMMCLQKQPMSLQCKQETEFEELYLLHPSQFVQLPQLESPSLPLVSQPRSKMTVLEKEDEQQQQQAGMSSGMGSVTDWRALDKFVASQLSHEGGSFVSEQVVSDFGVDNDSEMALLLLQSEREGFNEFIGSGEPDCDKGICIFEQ

A further data set has as its target T2, VND3 (MusaVND3) (Musa (banana), cultivar  for …, UniProt A0A0G2UF56 1-336).
T2 sequence: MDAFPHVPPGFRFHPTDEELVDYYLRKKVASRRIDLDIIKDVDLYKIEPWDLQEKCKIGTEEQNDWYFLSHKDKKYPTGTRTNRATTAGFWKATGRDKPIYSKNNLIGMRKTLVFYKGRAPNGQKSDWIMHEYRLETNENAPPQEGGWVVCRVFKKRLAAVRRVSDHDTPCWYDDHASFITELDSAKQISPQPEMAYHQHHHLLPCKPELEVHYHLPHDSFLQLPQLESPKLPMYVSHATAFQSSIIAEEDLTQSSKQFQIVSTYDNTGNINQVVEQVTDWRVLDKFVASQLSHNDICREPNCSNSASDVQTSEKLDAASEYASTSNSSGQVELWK

Another data set concerns the target T3, VND2 (MusaVND2) (Musa (banana), cultivar  for …, UniProt A0A0G2UKP9 1-329).
T3 sequence: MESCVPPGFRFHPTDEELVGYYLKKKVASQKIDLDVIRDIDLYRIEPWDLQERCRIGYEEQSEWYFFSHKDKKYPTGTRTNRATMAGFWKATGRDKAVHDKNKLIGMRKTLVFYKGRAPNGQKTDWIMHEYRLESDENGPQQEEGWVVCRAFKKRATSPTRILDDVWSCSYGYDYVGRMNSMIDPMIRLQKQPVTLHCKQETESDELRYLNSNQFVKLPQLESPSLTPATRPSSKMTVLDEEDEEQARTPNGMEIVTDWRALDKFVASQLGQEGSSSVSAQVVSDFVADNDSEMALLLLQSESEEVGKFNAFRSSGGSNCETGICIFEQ

B1: SNBE-like site PMusaVND6 (-220 to -201), 38 bp (dsDNA)
DNA 1: AATTCGATAGCCTTAGTTGTAGGGCTCAAGATTTTGGT
DNA 2: ACCAAAATCTTGAGCCCTACAACTAAGGCTATCGAATT
As to B1, the binding result with VND1 (MusaVND1) (AGTTGTAGGGCTCAAGATT mutant), with VND3 (MusaVND3) (AGTTGTAGGGCTCAAGATT mutant) and in the data set with VND2 (MusaVND2) (AGTTGTAGGGCTCAAGATT mutant) was “binds” in each case.

B2: mSNBE PMusaVND7 (dsDNA)
DNA 1: CCTTCGGAAAGCACTCATTTAGGTTGG
DNA 2: CCAACCTAAATGAGTGCTTTCCGAAGG
As to B2, the binding result with VND1 (MusaVND1), with VND3 (MusaVND3) and with VND2 (MusaVND2) was “no binding” in each case.

B3: mSNBE PMusaVND6 (dsDNA)
DNA 1: CCTTCGTAAAAGGGCTCTTTAGGTTGG
DNA 2: CCAACCTAAAGAGCCCTTTTACGAAGG
Take B3: the binding result in the data set with VND1 (MusaVND1), with VND3 (MusaVND3) and with VND2 (MusaVND2) was “no binding” in each case.

B4: SNBE-like site PMusaVND7 (-186 to -167), 38 bp (dsDNA)
DNA 1: AATTCGATAGCCTTTGGCGTGCACTCAAAGAAATTGGT
DNA 2: ACCAATTTCTTTGAGTGCACGCCAAAGGCTATCGAATT
On to B4, for which the binding result with VND1 (MusaVND1) (TGGCGTGCACTCAAAGAAA mutant), with VND3 (MusaVND3) (TGGCGTGCACTCAAAGAAA mutant) and with VND2 (MusaVND2) (TGGCGTGCACTCAAAGAAA mutant) was “binds” throughout.
